In paper PMC3241647 (Nucleic Acids Research, 2011):

Target: the molecule itself
Assay: SEC

Row | Protein | stoichiometry N | binding result
1 | Bacillus subtilis Zur C84S (natural protein) not shown | 2 | 
2 | Bacillus subtilis Zur H90A (natural protein) not shown |  | binds
3 | Bacillus subtilis Zur H89A (natural protein) not shown |  | binds
